Measured values from paper PMC2708863.
Where two headings read alike, the source gives them in different places.

How the values were obtained:
Test in all cases: NMR titration
[1] = target: ^4–5FnI, human fibronectin residues 183–275 (human) (UniProt P02751)
[2] = target: ^2–3FnI, human fibronectin residues 93–182 (human) (UniProt P02751)
[3] = target: ^4–5FnI, human fibronectin residues 183–275 (human) (UniProt P02751); remark: listed apart in the source
[4] = target: ^2–5FnI, second to fifth type I domains of human fibronectin (human)

Row | Substance | Kd [1] | Kd [2] | Kd [3] | Kd [4] | fractional saturation [4]
1 | ^2FnIII, second type III domain of human fibronectin (domain or fragment) | 820 µM | 710 µM | 1200 µM | – | –
2 | ^2–3FnIII, second and third type III domains of human fibronectin (domain or fragment) | – | – | – | 125 µM | 25%
